Data as given in the Human Domainome abundance scans (Beltran et al. 2025).
± gives the uncertainty stated by the source.

B1: Tumor protein p73, residues 487 to 549; numbered along this chain, O15350 (parent)
chain: YHADPSLVSFLTGLGCPNCIEYFTSQGLQSIYHLQNLTIEDLGALKIPEQYRMTIWRGLQDLK

Variants of: B1
Experiment: abundance fitness (aPCA) (normalised: wild type 0, dead -1); higher = more abundant; growth selection in yeast, the domain comes from the species named
Conditions: Homo sapiens

In order of rising abundance fitness:
1. YHADPSLVSFLTGLGCPNCIEYFTSQGLQSIYHLQNLTIEDLGALKIPEQYRMTIWRLLQDLK [G58L]  -1.02 ± 0.1
2. YHADPSLVSFLTGLGCPNCIEYFTSQGLQSIYHLQNLTIEDLGALKQPEQYRMTIWRGLQDLK [I47Q]  -0.985 ± 0.088
3. YHADPSLVSFLTGDGCPNCIEYFTSQGLQSIYHLQNLTIEDLGALKIPEQYRMTIWRGLQDLK [L14D]  -0.923 ± 0.18
4. YHADPSLVSFLTGLGCPNCIEYFTSQGLQSIYHLQNLTIEDLGALKIPEQYRMTAWRGLQDLK [I55A]  -0.918 ± 0.11
5. YHADPSLVSFLTGLGCPNCIEYFTSQGLQSIYHLQNLTIEDLGALKAPEQYRMTIWRGLQDLK [I47A]  -0.768 ± 0.075
6. YHADPSLVSFLTGLGCPNCIEYFTSQGLQSIYHLQNLTIEDGGALKIPEQYRMTIWRGLQDLK [L42G]  -0.654 ± 0.05
7. YHADPSLVSFLTGLGCPNCIEYFTSQGLQSIYHLQNLTIEDLGALKIPEQYRMTIWRGQQDLK [L59Q]  -0.554 ± 0.092
8. YHADPSLVSFLTGEGCPNCIEYFTSQGLQSIYHLQNLTIEDLGALKIPEQYRMTIWRGLQDLK [L14E]  -0.53 ± 0.071
9. YHADPSLVSFLTGLGCPNCIEYFTSQGLQSIYHLQNLTIEDLGALKIPEQYRMTQWRGLQDLK [I55Q]  -0.5 ± 0.098
10. YHADPSLVSFLTGFGCPNCIEYFTSQGLQSIYHLQNLTIEDLGALKIPEQYRMTIWRGLQDLK [L14F]  -0.493 ± 0.058
11. YHADPSLVSFLTGLGCPNCIEYFTSQGLQSIYHLQNLTIEDLGALKIPEQYRMTIWRPLQDLK [G58P]  -0.433 ± 0.075
12. YHADPSLVSFLTGLGCPNCIEYFTWQGLQSIYHLQNLTIEDLGALKIPEQYRMTIWRGLQDLK [S25W]  -0.361 ± 0.041
13. YHADPSLVSFLTGLGCPNCIEYFTSQGLQSIYHLQNLTIEDLGALKIPEQYRYTIWRGLQDLK [M53Y]  -0.302 ± 0.16
14. YHADPSLVSFLTGLGCPYCIEYFTSQGLQSIYHLQNLTIEDLGALKIPEQYRMTIWRGLQDLK [N18Y]  -0.167 ± 0.062
15. YHADPSLVSFLTGLGCPNCIEYFTSIGLQSIYHLQNLTIEDLGALKIPEQYRMTIWRGLQDLK [Q26I]  -0.163 ± 0.33
16. YHADPSLVSFLTGLGCPNCIEYFTSQGLQSIYHLQNLTIMDLGALKIPEQYRMTIWRGLQDLK [E40M]  -0.127 ± 0.054
17. YHADPSLVSFLTGLGCPNCREYFTSQGLQSIYHLQNLTIEDLGALKIPEQYRMTIWRGLQDLK [I20R]  -0.111 ± 0.033
18. YAADPSLVSFLTGLGCPNCIEYFTSQGLQSIYHLQNLTIEDLGALKIPEQYRMTIWRGLQDLK [H2A]  -0.094 ± 0.061
19. YHADPSLVSFLTGLGCPNCIEYFTSQGLQSIYHLQNLTIEDLGALKIPEQYRMTLWRGLQDLK [I55L]  -0.091 ± 0.039
20. YHADPSLVSFLTGLGCPNCIEYFTSQGLQSIYHLQNLTIWDLGALKIPEQYRMTIWRGLQDLK [E40W]  -0.085 ± 0.044
21. YHADPSLVSFLTGLGCPNCIEYFRSQGLQSIYHLQNLTIEDLGALKIPEQYRMTIWRGLQDLK [T24R]  -0.083 ± 0.031
22. YHADPSLVSFLTGLGCPNCQEYFTSQGLQSIYHLQNLTIEDLGALKIPEQYRMTIWRGLQDLK [I20Q]  -0.082 ± 0.046
23. YHADPSLVSFLTGLGCPNCIEYFTSQGLQSIYHLQNLTIEDMGALKIPEQYRMTIWRGLQDLK [L42M]  -0.078 ± 0.047
24. YHADPSLVSFLTGLGCPNCIEYFTSCGLQSIYHLQNLTIEDLGALKIPEQYRMTIWRGLQDLK [Q26C]  -0.057 ± 0.052
25. YHADPSLVSFLTGLGCPNCIEYFTSQGLQSIYHLQNLTIEDLGALKIPSQYRMTIWRGLQDLK [E49S]  -0.056 ± 0.037
26. YHADPSLVSFLTGLGCPNCIEYFTSQGLQSIYHLQNLTIEDLGALKIPEQYRMSIWRGLQDLK [T54S]  -0.042 ± 0.075
27. YHADPSLVSFLTGLGCPNCIEYFTSQGQQSIYHLQNLTIEDLGALKIPEQYRMTIWRGLQDLK [L28Q]  -0.038 ± 0.042
28. YHADPSLVSFLTGLGCPNCIEYFTSQGLQSIYGLQNLTIEDLGALKIPEQYRMTIWRGLQDLK [H33G]  -0.038 ± 0.033
29. YHADPSLVSFLTGLGCPNCIEYFTSQGLQSIYHLQNLTIEDLGALKIPEQYRKTIWRGLQDLK [M53K]  -0.033 ± 0.078
30. YHADPSLVSFLTGLGCPNCIEYFTSQGLQSIYHLQNLTIEDLGALKIPEQYRMLIWRGLQDLK [T54L]  -0.01 ± 0.051
31. YHADPSLVSFLTGLGCPNCIEYFTSQGLQSIYHLQNLTIEDLGALKIPEQYRMDIWRGLQDLK [T54D]  -0.01 ± 0.065
32. YHADPSLVSFLTGLGCPNCIEYFTSQGLQSIWHLQNLTIEDLGALKIPEQYRMTIWRGLQDLK [Y32W]  -0.001 ± 0.043
33. YHADPSLVSFLTGLGCPNCIEYFTSQGLQSIYHLQNLTIEDLGALKIPEQYRMTIWDGLQDLK [R57D]  0.011 ± 0.26
34. YHADPSLVSFLTGLGCPNCIEYFTSQGLQSIYHLQNLTIEDLGALKIPEQYRDTIWRGLQDLK [M53D]  0.019 ± 0.047
35. YHADPSLVSFLTGLGCPECIEYFTSQGLQSIYHLQNLTIEDLGALKIPEQYRMTIWRGLQDLK [N18E]  0.033 ± 0.042
36. YHADPSLVSFLTGLGCPHCIEYFTSQGLQSIYHLQNLTIEDLGALKIPEQYRMTIWRGLQDLK [N18H]  0.04 ± 0.082
37. YHADPSLVSFLTGLGCPNCIEYFTSQGLLSIYHLQNLTIEDLGALKIPEQYRMTIWRGLQDLK [Q29L]  0.044 ± 0.028
38. YEADPSLVSFLTGLGCPNCIEYFTSQGLQSIYHLQNLTIEDLGALKIPEQYRMTIWRGLQDLK [H2E]  0.066 ± 0.046
39. YHDDPSLVSFLTGLGCPNCIEYFTSQGLQSIYHLQNLTIEDLGALKIPEQYRMTIWRGLQDLK [A3D]  0.08 ± 0.17
40. YHADPSLVSFLTGLGCPNCIEYFTSQGLHSIYHLQNLTIEDLGALKIPEQYRMTIWRGLQDLK [Q29H]  0.102 ± 0.076
41. YQADPSLVSFLTGLGCPNCIEYFTSQGLQSIYHLQNLTIEDLGALKIPEQYRMTIWRGLQDLK [H2Q]  0.345 ± 0.058
42. YIADPSLVSFLTGLGCPNCIEYFTSQGLQSIYHLQNLTIEDLGALKIPEQYRMTIWRGLQDLK [H2I]  0.515 ± 0.097
